Target: β2AR-Rluc (human; Renilla reniformis) (UniProt P07550)
Assay: BRET2, living HEK293T cells, Iso, untagged Gβ1γ2 co-expressed

Gαs-GFP10
agonist-promoted increase in BRET: 68%
